Measurements taken from patent publication US20080045451A1, “Novel thymidylate synthase mutants” (priority 2000, published 2008).
Numbering of substitutions follows the chain as printed. In names and notes the source's numbering stands. Several values for one entry are separate records, joined by “and”; a condition that tells them apart may be missing. Equal entries are not always repeated. Entries after “also recorded” stand apart in the source; their conditions may differ.

Tests used:
E. coli χ2913 cells = experiment: Survival of TS-deficient E. coli χ2913 expressing wild type or mutant TS on M9 plates containing 5-FdUR; assay type: cell-based; details: for 5-FdUR concentration at which colonies formed on minimal plates: side-by-side comparison, FIG. 3A, 200 nM clones did not grow at 250 nM; for resistance to 5-FdUR (survival curves), in words: FIG. 3A-3C, single mutants made by site-directed mutagenesis
Method: The resistance of each of the 41 mutants to 5-FdUR is expressed as fold enhancement in survival relative to wild type determined in parallel assays. All assays were carried out in duplicate at varying concentration of 5-FdUR and most comparison were repeated in two or more separate experiments. […] Only those experiments in which the survival of the wild type was lower than 1% were included in this tabulation. The percent survival of the wild type at the indicated concentrations of 5-FdUR is as follows: (a) 0.4% in 0.4 nM; (b) <0.1% in a 150 nM; (c) 0.1% at 150 nM; (d) 0 at 300 nM; (e) 0.5% at 150 nM; (f) 0 at 200 nM; (g) 0.95 at 150 nM.
E. coli χ2913 cells harboring plasmids with random substitutions encoding different amino acids, the TS library, were grown overnight at 37° C. in 2×YT medium containing 50 mg/ml of carbenicillin and 50 mg/ml thymidine. Cultures were diluted 1:100 in the same medium and grown at 37° C. until the OD600 reached 0.6 to 0.8. Aliquots (1 ml) of the exponentially growing cells were pelleted and resuspended in M9 salts and plated on three different media. On 1×YT containing […] of carbenicillin and supplemented with 50 mg/ml of thymidine, essentially all cells harboring the plasmid DNA should be recovered. On M9 plates containing carbenicillin, only cells expressing active TS proteins should grow because the medium lacks thymidine. Drug resistant clones were selected on M9 plates containing carbenicillin and increasing concentrations of 5FdUR essentially as previously described (Landis, D. M., Loeb, L. A., 1998, J. Biol. Chem. 273:25809-25817)
To isolate mutants that render E. coli χ2913 resistant to 5-FdUR, the TS library was plated on M9 minimal medium containing 200 or 300 nM 5-FdUR. […] Resistant colonies were selected and plasmid DNA was isolated and re-transformed into fresh χ2913 cells to confirm that the plasmid was the source of the drug-resistant phenotype.
To obtain a profile of amino acid replacements conferring resistance, the remaining, 3′-proximal third of the cDNA from each of the 33 mutants was sequenced. […] Resistance is recorded as percent survival relative to percent survival of host cells harboring wild type TS at 150 nM 5-FdUR of greater. Expression of TS in 10 of the resistant mutants was analyzed by Western blotting with antiserum directed against human TS. The level of expression of wild type TS was more than 2-fold greater than that of any of the mutants, estimated by visual inspection of the gel (data not shown). The mutant proteins may be more labile than the wild type or more susceptible to proteolytic degradation.

bacterial strain χ2913 = experiment: Testing the 5-FU-resistance of TS-mutants: colonies of transfected χ2913 on 5-FdUR selection plates; assay type: cell-based; details: 200 nM 5-FdUR, FIG. 5
Method: The bacterial strain χ2913 was transfected with expressions vectors of the TS-mutants and defined amounts of bacteria in the exponential growth phase were plated on selection plates. The selection plates contained increasing concentrations of 5-fluorodeoxyuridine (0, 75, 150, 200, respectively 300 nM). 5-fluorodeoxyuridine (5-FdUR) is a very effective metabolite, which is generated from 5-fluorouracil in the cell. The selection plates were made of minimal medium, which contained carbenicilline and tetracycline. […] After 36 to 48 hours the number of growing colonies was determined. For this the number of colonies of bacteria, which were transfected with wild type thymidylate synthase was set as 100% and all other numbers of colonies were correspondingly converted to % values.

[1] = Inhibition constants (Ki) for 5-FdUMP from Dixon plot; assay type: biochemical, human; details: 25° C.
Method: TS activity was monitored spectrophotometrically by the increase in absorbance at 340 nm that occurs concomitant with the production of H2 folate (Δε=6400 M^−1 cm^−1). The reaction buffer contained 50 mM TES (pH 7.4), 25 mM NaCl, 6.5 mM formaldehyde, 1 mM EDTA and 150 μM 2-mercaptoethanol. When the concentration of dUMP was varied, a high concentration of (6R)—CH2H4 folate was added (3001200 mM of a racemic mixture); when the concentration of (6R)—CH2H4-folate was varied, the concentration of dUMP was 400 μM. Purified wild type or mutant TS protein was added to initiate the reaction at 25° C. Initial velocity measurements were obtained with a Perkin Elmer Lambda Bio 20 UV/VIS spectrophotometer. Steady-state kinetic parameters were derived by a nonlinear least squares fit of the data to the Michaelis Menten equation with KaleidaGraph 3.0 software (Abelbeck Software, Reading Pa.). […] Two dUMP concentrations (30 μM and 300 μM) were used, and FdUMP concentrations were varied. To initiate reactions, CH2H4-folate was added to yield a final concentration of 300 μM of the active isomer.

[2] = Steady-state kinetic analysis of purified His-tagged TS proteins; assay type: biochemical, human; details: 25° C., dUMP 400 μM
From the text: To subclone mutant TS fragments into the pH is vector (a modified pUC12 vector provided by A. Hizi), the TS cDNA was PCR-amplified by using HK-MUT5′ and TSXho3′ (5′-[…]-3′, SEQ ID NO: 4). After digestion with NdeI and XhoI, the amplified fragments were ligated into the NdeISalI digested pH is vector. The reconstructed plasmids were verified by both restriction analysis and DNA sequencing. Wild type and mutant TS proteins, as N-terminal hexahistidine fusions, were then purified by metal chelation chromatography on Ni^2+ affinity resin (His Bind resin and buffer kit, Novagen), as previously described, with minor modifications (see Landis, cited above). An overnight culture of χ2913 cells expressing the His-TS fusion protein was diluted 1:100 into 250 ml of 2×YT medium containing carbenicillin and thymidine. […] The concentration of purified TS was determined by using the Bradford assay.
TS activity was monitored spectrophotometrically by the increase in absorbance at 340 nm that occurs concomitant with the production of H2 folate (Δε=6400 M^−1 cm^−1). […] Steady-state kinetic parameters were derived by a nonlinear least squares fit of the data to the Michaelis Menten equation with KaleidaGraph 3.0 software (Abelbeck Software, Reading Pa.). […]

B1: T51S;G52S (protein)
chain: MPVAGSELPRRPLPPAAQERDAEPRPPHGELQYLGQIQHILRCGVRKDDRSSTGTLSVFGMQARYSLRDEFPLLTTKRVFWKGVLEELLWFIKGSTNAKELSSKGVKIWDANGSRDFLDSLGFSTREEGDLGPVYGFQWRHFGAEYRDMESDYSGQGVDQLQRVIDTIKTNPDDRRIIMCAWNPRDLPLMALPPCHALCQFYVVNSELSCQLYQRSGDMGLGVPFNIASYALLTYMIAHITGLKPGDFIHTLGDAHIYLNHIEPLKIQLQREPRPFPKLRILRKVEKIDDFKAEDFQIEGYNPHPTIKMEMAV
- 5-FdUR concentration at which colonies formed on minimal plates (E. coli χ2913 cells): 200 nM

B2: D116A (protein)
chain: B1 chain with S51T, S52G, D116A
- resistance to 5-FdUR (survival curves), in words (E. coli χ2913 cells): yield resistance

B3: D254E (protein)
chain: B1 chain with S51T, S52G, D254E
- resistance to 5-FdUR (survival curves), in words (E. coli χ2913 cells): higher resistance than wild type TS
- survival rate of bacteria transfected with TS expression vector (bacterial strain χ2913): 80%

B4: Y258F: human TS single mutant Y258F made by site-directed mutagenesis (protein)
chain: B1 chain with S51T, S52G, Y258F
- resistance to 5-FdUR (survival curves), in words (E. coli χ2913 cells): less resistant than the double mutant, but more resistant than wild type TS
- Ki for 5-FdUMP, increase over wild type TS [1]: 3.1 fold

B5: T51S: human TS single mutant T51S (protein)
chain: B1 chain with S52G
- Ki for 5-FdUMP, increase over wild type TS [1]: 11 fold

B6: wild type TS: wild type human thymidylate synthase (SEQ ID NO: 7) (protein, listed as Homo sapiens)
chain: B1 chain with S51T, S52G
- percent survival of the wild type (E. coli χ2913 cells; 0.4 nM 5-FdUR): 0.4%
- percent survival of the wild type (E. coli χ2913 cells; 150 nM 5-FdUR, separate experiments (b), (c), (e), (g)): < 0.1% and 0.1% and 0.5% and 0.95%
- percent survival of the wild type (E. coli χ2913 cells; 200 nM 5-FdUR): 0%
- percent survival of the wild type (E. coli χ2913 cells; 300 nM 5-FdUR): 0%
- survival rate of bacteria transfected with TS expression vector (bacterial strain χ2913): no wild type TSWT survived

B7: T53S (protein)
chain: B1 chain with S51T, S52G, T53S
- resistance to 5-FdUR (survival curves), in words (E. coli χ2913 cells): less resistant than the double mutant, but more resistant than wild type TS; also recorded: less resistant than Y258F

B8: D254N (protein)
chain: B1 chain with S51T, S52G, D254N
- resistance to 5-FdUR (survival curves), in words (E. coli χ2913 cells): higher resistance than wild type TS

B9: M219V (protein)
chain: B1 chain with S51T, S52G, M219V
- resistance to 5-FdUR (survival curves), in words (E. coli χ2913 cells): yield resistance

B10: D254A (protein)
chain: B1 chain with S51T, S52G, D254A
- resistance to 5-FdUR (survival curves), in words (E. coli χ2913 cells): higher resistance than wild type TS

B11: Mutant 302: human TS mutant, substitutions T53S, Y258F (protein, UniProt P04818 2-313, looked up, variant T53S Y258F)
Thymidylate synthase: PVAGSELPRRPLPPAAQERDAEPRPPHGELQYLGQIQHILRCGVRKDDRTGSGTLSVFGMQARYSLRDEFPLLTTKRVFWKGVLEELLWFIKGSTNAKELSSKGVKIWDANGSRDFLDSLGFSTREEGDLGPVYGFQWRHFGAEYRDMESDYSGQGVDQLQRVIDTIKTNPDDRRIIMCAWNPRDLPLMALPPCHALCQFYVVNSELSCQLYQRSGDMGLGVPFNIASYALLTYMIAHITGLKPGDFIHTLGDAHIFLNHIEPLKIQLQREPRPFPKLRILRKVEKIDDFKAEDFQIEGYNPHPTIKMEMAV
- Survival Mutant/WT (fold enhancement in survival relative to wild type) (E. coli χ2913 cells; (g) wild type survival 0.95 at 150 nM 5-FdUR): 220 fold
- resistance to 5-FdUR (survival curves), in words (E. coli χ2913 cells): as resistant or more resistant to elevated concentrations of 5-FdUR than any clone tested
- 5-FdUR concentration at which colonies formed on minimal plates (E. coli χ2913 cells): 250 nM
- Km for CH2H4-folate, fold higher than wild type TS [2]: approximately 10 fold
- Ki for 5-FdUMP, increase over wild type TS [1]: 6 fold
